Results on 6 molecules are retold here after patent US12692310B2, “ASIC1 channel antagonist antibody” (ShanghaiTech University, priority 2019, dated 2026).

Like-named read-outs stand apart in the source and are kept apart here. No end group written: not given here.

The test system of assay [1] is MCAO-induced ischemic stroke model mice. In words: Middle cerebral artery occlusion (MCAO)-induced ischemic stroke model. The format is in vivo, mouse. The following applies: 4 μL i.c.v. 3 h after ischemia; 100 nM PcTx1 or 3.0 μg/μL ASC06-IgG1; 24 h after injection. How it is done: The Middle Cerebral Artery Occlusion (MCAO) Model. Animal care and the experimental protocols were approved by the Animal Ethics Committee of Shanghai Jiao Tong University School of Medicine, Shanghai, China. A transient ischemic stroke in the left brain hemisphere was established in male mice (C57 BL/6, 20-25 g) using middle cerebral artery occlusion (MCAO) for 1 h before reperfusion. Three hours after ischemia, a total of 4 μL of vehicle solution (PBS) in the absence or presence of neuroprotective agents) 100 nM PcTx1 or 3.0 μg/μL endotoxin-free ASC06-IgG1 ([…])) was administered by an intracerebroventricular (i.c.v.) injection on the contralateral side of the brain hemisphere. An irrelevant endotoxin-free antibody (3.0 μg/μL, […]) was used as isotype control. […] Mice were sacrificed 24 h after the i.c.v. injection. […] The infarct area was calculated by subtracting the normal area stained with TTC in the ischemic hemisphere from that of the nonischemic hemisphere. The infarct volume was calculated by summing infarction areas of all sections and multiplying by slice thickness.
To determine if the protective effect of antibody ASC06-IgG1 in vitro could be extended to pathologies in vivo, the middle cerebral artery occlusion (MCAO) model was used to study the antibody's neuroprotective effect. […] The infarct volume of the cortex and striatum were calculated 24 hours after the injection. […]

A further assay deals with T1, hASIC1a (Homo sapiens, UniProt P78348).
T1 construct: expressed in transfected cells
T1 sequence (P78348 1-528): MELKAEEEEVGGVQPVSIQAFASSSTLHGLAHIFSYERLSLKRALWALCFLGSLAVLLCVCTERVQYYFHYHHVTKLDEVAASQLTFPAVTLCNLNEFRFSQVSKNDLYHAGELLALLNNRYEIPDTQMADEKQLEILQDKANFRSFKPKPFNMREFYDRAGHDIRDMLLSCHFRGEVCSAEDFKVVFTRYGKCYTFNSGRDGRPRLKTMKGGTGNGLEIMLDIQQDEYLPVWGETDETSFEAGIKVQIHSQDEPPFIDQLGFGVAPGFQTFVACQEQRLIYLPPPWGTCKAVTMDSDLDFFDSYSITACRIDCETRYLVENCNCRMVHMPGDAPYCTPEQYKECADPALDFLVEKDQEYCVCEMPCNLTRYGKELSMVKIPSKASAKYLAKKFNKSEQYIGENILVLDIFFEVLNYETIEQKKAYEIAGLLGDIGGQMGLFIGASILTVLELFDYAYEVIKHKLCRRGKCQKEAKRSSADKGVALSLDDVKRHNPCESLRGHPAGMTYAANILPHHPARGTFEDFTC
In words: Whole-cell patch clamp, acid-induced hASIC1a currents in stable CHO-K1 cells. The format is cell-based. How it is done: Electrophysiological Experiments. The inward cellular ASIC1a current was recorded from a single cell using standard whole-cell recording techniques by a patch-clamp amplifier (Axon 200B; Axon Instruments). Membrane currents were sampled and analyzed using a Digidata 1320A interface and a personal computer with Clampex and Clampfit software (Version 9.0.1; Axon Instruments). For a typical experiment, the extracellular fluid (ECF) used contained 150 mM NaCl, 5 mM KCl, 10 mM HEPES, 10 mM D-glucose, 2 mM CaCl2, and 1.0 mM MgCl2, with the osmotic pressure in the range of 320-335 mOsm, and pH 7.4 adjusted with 5 M NaOH. Patch electrodes (4-6 MΩ) contained 30 mM NaCl, 120 mM KCl, 0.5 mM CaCl2, 1 mM MgCl2, 10 mM HEPES, 2 mM MgATP, and 5 mM EGTA (pH 7.2 adjusted with 5 M KOH) at 300 mOsm. The ASIC1a activating ECF is identical to the normal ECF, except that MES was used to replace HEPES to maintain the ECF at pH 6.0. A coverslip with discretely distributed individual CHO-ASIC1a stable cells (6H7) on the surface was placed into a recording chamber under a constant perfusion (~2-3 mL/min) generated by an ALA 8 channel perfusion system (ALA Scientific Instruments Inc.) mounted on an inverted microscope. After achieving the break-in (whole-cell) configuration, the cell was voltage clamped at a holding potential of −70 mV. The normal ECF (pH 7.4) was first perfused onto the patched cell, and then, the activating ECF of pH 6.0 was rapidly applied to elicit a maximum inward ASIC1a current as control current. When testing the inhibition effect of the antibody, ECFs of pH 7.4 containing different concentrations of ASC06-IgG1 were perfused from low to high concentration into the recording chamber for 10-15 min. To measure the inhibition of the current, the activating ECFs of pH 6.0 containing the corresponding concentrations of the testing antibodies were applied to the same patched 6H7 cell to generate the inward currents that can be normalized to the control current of the same cell. […] Data acquired from four to five cells were used for statistical calculation of inhibition effects.
The function of ASC06-IgG1 was characterized using electrophysiology approach. The effect of ASC06-IgG1 antibody on the acid-induced, hASIC1a-mediated electrical current in cells was analyzed. PcTx1 was used as a positive control. […] The amplitudes of the hASIC1a-mediated inward currents of the stable cells were recorded and quantitated in the absence and presence of ASC06-IgG1, with venom peptide PcTx1 (100 nM) used as positive control. […] Unlike the sustained inhibition with the antibody after washing, the inhibition with PcTx1 could be readily washed out within 5 minutes (FIG. 5C).

The target in assay [2] is truncated hASIC1a (amino acids 13-464) (human) (UniProt P78348). As to the kind of experiment: Octet, scFv format, ΔhASIC1a nanodiscs.
The target of the next assay is T2, hASIC1a-eYFP (human, UniProt P78348 1-528).
T2 construct: whole, on cells; On CHO-K1 cells, stably (6H7) or transiently transfected; also called full-length hASIC1a (1-528 amino acids) fused with eYFP; CHO-K1/hASIC1a cells; not shown: C-terminal eYFP fusion
T2 sequence (looked up): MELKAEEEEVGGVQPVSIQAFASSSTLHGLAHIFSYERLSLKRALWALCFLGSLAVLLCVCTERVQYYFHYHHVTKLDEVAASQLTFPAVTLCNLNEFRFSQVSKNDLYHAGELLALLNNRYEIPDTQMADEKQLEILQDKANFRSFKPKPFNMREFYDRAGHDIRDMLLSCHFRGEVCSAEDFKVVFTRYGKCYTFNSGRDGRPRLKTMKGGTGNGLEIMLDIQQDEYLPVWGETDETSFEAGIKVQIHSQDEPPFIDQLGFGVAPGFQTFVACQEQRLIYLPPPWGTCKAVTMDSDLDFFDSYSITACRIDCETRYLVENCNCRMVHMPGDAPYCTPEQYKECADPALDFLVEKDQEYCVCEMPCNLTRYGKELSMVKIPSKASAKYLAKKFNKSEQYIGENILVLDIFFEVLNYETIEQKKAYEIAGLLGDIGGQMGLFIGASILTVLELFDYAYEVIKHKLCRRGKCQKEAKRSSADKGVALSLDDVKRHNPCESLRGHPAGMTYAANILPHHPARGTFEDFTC
As to the kind of experiment: immunocytochemistry, confocal microscopy, CHO-K1 cells expressing hASIC1a-eYFP.

Assay [3] addresses truncated hASIC1a (amino acids 13-464) (human) (UniProt P78348). In words: Octet, scFv format at 500 nM, ΔhASIC1a nanodiscs. (In general: In BLI a coated tip is dipped into the sample, and binding shifts an interference pattern.)
For assay [4] the target is unchanged.

For the molecule “Psalmotoxin-1 [PcTx1, reference compound]”, the “infarct volume (compared with the contralateral brain region)” value in assay [1] is recorded as “about 17%”. In addition, the “inhibition of the acid-induced current, in words” value with hASIC1a (100 nM, positive control) is given as “nearly complete inhibition”. For the same molecule, the “time for inhibition to be washed out” value in the assay with hASIC1a (washout experiment) was not above 5 min.

B1: ASC03 (scFv, V domains shown)
VH: QVQLVESGAEVKKPGSSVKVSCKASGGNFRKYSISWVRQAPGQGLEWMGWISAYNGNTNYAQKLQGRVTMTTDTSTSTAYMELRSLRSDDTAVYYCARDFDPYYDAFDIWGQGTTVTVSS
VL: QSALTQPASVSGSPGQSITISCTGTSSDVGAYNYVSWYQQHPGKAPKLMIYDVSNRLSGVSNRFSGSKSGNRASLTISGLQAEDEADYYCSSYRSGNSLAFGGGTKLTVLG
notes: also called ASC03 scFv; ASC03 (scFv format)
The Kd is the concentration at which binding is half-saturated. High values mean a looser complex, low ones a tighter complex. In assay [2], B1 displayed a Kd of 259 nM. For the same molecule, in the assay with hASIC1a-eYFP, the binding result was “binds”. This molecule gave a Response in assay [3] of 0.269.

B2: ASC05 (scFv, V domains shown)
VH: QVQLVESGAEVKKPGASVRVSCKASGYSFTNYYMHWVRQAPGQGLEWMGIISPSGRSTSFAQKFQGRVTMTRDTSTSTVYMHLSSLRSDDTAVYYCARGAWSTDAFDIWGQGTTVTVSS
VL: QSALTQPASVSGSPGQSITISCTGTSSDVGSYNLVSWYQQHPGKAPKLMIYEGSKRPSGVSNRFSGSKSGNTASLTISGLQAEDEAEYHCSSFTGKGYVFGTGTKLTVLG
notes: also called ASC05 scFv; ASC05 (scFv format)
B2 came in with a Kd in assay [2] of 137 nM. In addition, the binding result with hASIC1a-eYFP is “binds”. This molecule registered a Response in assay [3] of 0.502.

B3: ASC02 (scFv, V domains shown)
VH: QVQLVQSGAEVKKPGASMKVSCTTSGYTVTGYYIHWLRQAPGQGFEWMGWINPNLGVTNYAQKFQGRVSMTRDPSIKTAYLELSGLRSDDTAMYYCARASTGGIFYDYWGQGTLVTVSS
VL: NFMLTQPHSMSESPGKTVTISCTRSSGNIASNYVQWYQQRPGSSPTTVIYDDNQRPSGVPDRFSGSIDSISNSASLTISGLKTEDEADYYCQSYDSSSVIFGGGTKLTVLG
notes: also called ASC02 scFv; ASC02 (scFv format)
For the molecule B3, the dissociation constant Kd in assay [2] was 262 nM. In addition, the binding result with hASIC1a-eYFP is “binds”. The Response in assay [3] was 0.289.

B4: venom peptide PcTx1 fused with Fc (PcTx1-Fc) (Fc fusion)
chain: EDCIPKWKGCVNRHGDCCEGLECWKRRRSFEVCVPKTPKT
modifications: ends and bridges not checked; also: fused with Fc, isotype, linker and order not given here
B4 displayed a Kd in assay [4] of 1 nM.

B5: ASC04 (scFv, V domains shown)
VH: QVQLVQSGAEVKKPGSSVKVSCKASGGTFSTYAINWVRQAPGQGLEWMGWMNPNSGNTGYAQKFQGRVTMTRNTSISTAYMELSSLRSEDTAVYYCARYSYGMDVWGQGTTVTVSS
VL: QAVLTQPSSLSASPGASVSLTCTLRSGINVGAYRIYWYQQKPGSPPQFLLRYKSDSDKQQGSGVPSRFSGSRDASANAGILLISGLRSEDEADYYCAIWHSSAWVFGGGTKLTVLG
notes: also called ASC04 scFv; ASC04 (scFv format)
In assay [2], B5 came in with a Kd of 20.8 nM. Also, the binding result with hASIC1a-eYFP is listed as “binds”. This molecule had a Response in assay [3] of 0.995.
